The text below walks through data of patent publication US20170112900A1 (Pieris, published 2017).

The target of this experiment is T1, human IL-4 receptor alpha chain (Interleukin-4 receptor subunit alpha, Uniprot #P24394, SEQ ID NO: 12) (human, UniProt P24394 26-232, limits assumed).
T1 construct: also called IL-4RA; human IL-4RA
T1 sequence: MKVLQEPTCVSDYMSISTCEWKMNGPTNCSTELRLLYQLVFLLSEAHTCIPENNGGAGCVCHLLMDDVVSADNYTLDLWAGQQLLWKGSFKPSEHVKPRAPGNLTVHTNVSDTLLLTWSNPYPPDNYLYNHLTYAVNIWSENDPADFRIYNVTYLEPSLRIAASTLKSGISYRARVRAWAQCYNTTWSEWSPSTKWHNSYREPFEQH
Nature of the experiment: method not stated; target IL-4RA implied by the text.

Usually Kd stands for the equilibrium constant for the complex coming apart. High values mean lower affinity, low ones higher affinity. By koff is commonly meant a measure of how fast the partners let go of each other. Lower therefore signals a long-lived complex. The term kon denotes the second-order rate constant of association.

B1: IL-4 double mutant IL-4 (R121D, Y124D) (ligand, UniProt P05112 25-153, looked up)
chain: HKCDITLQEIIKTLNSLTEQKTLCTELTVTDIFAASKNTTEKETFCRAATVLRQFYSHHEKDTRCLGATAQQFHRHKQLIRFLKRLDRNLWGLAGLNSCPVKEANQSTLENFLERLKTIMDEKDSKCSS
notes: they probably count on mature IL-4, not on the precursor entry; also called IL-4 mutant (R121D, Y124D); IL-4 mutant
In the case of B1, the Kd turned out to be 0.154 nM, the dissociation rate constant (koff) stood at 0.0029 s⁻¹ and the kon turned out to be 1.9e+07 M⁻¹ s⁻¹.
